The record followed here is PMC7079103.

Assay in all cases: HRP-coupled steady-state kinetics
What all share (format): biochemical, Phanerodontia chrysosporium
Holding throughout (details): apparent, 50 mM potassium phosphate pH 7.5, O2 as co-substrate

Substrate in series [1]: CCCCCC=O
Substrate in series [2]: CC1CCC(O)O1
Substrate in series [3]: OCCCCCO
Substrate in series [4]: CC(O)CCCO
Substrate in series [5]: OCCCCCCO
Substrate in series [6]: OCCOCCO
Substrate in series [7]: CCCCCCO

B1: alcohol oxidase from Phanerochaete chrysosporium (PcAOX; F101S-PcAOX = AOX*) (Phanerodontia chrysosporium; F101S) (protein)
chain: MGHPEEVDVIVCGGGPAGCVVAGRLAYADPTLKVMLIEGGANNRDDPWVYRPGIYVRNMQRNGINDKATFYTDTMASSYLRGRRSIVPCANILGGGSSINSQMYTRASASDWDDFKTEGWTCKDLLPLMKRLENYQKPCNNDTHGYDGPIAISNGGQIMPVAQDFLRAAHAIGVPYSDDIQDLTTAHGAEIWAKYINRHTGRRSDAATAYVHSVMDVQDNLFLRCNARVSRVLFDDNNKAVGVAYVPSRNRTHGGKLHETIVKARKMVVLSSGTLGTPQILERSGVGNGELLRQLGIKIVSDLPGVGEQYQDHYTTLSIYRVSNESITTDDFLRGVKDVQRELFTEWEVSPEKARLSSNAIDAGFKIRPTEEELKEMGPEFNELWNRYFKDKPDKPVMFGSIVAGAYADHTLLPPGKYITMFQYLEYPASRGKIHIKSQNPYVEPFFDSGFMNNKADFAPIRWSYKKTREVARRMDAFRGELTSHHPRFHPASPAACKDIDIETAKQIYPDGLTVGIHMGSWHQPSEPYKHDKVIEDIPYTEEDDKAIDDWVADHVETTWHSLGTCAMKPREQGGVVDKRLNVYGTQNLKCVDLSICPDNLGTNTYSSALLVGEKGADLIAEELGLKIKTPHAPVPHAPVPTGRPATQQVR
In general, Km refers to the concentration of substrate that gives half-maximal velocity. Broadly, the kcat is the maximal rate divided by the concentration of active sites. As for B1, the Km in series [1] came out at 0.20 mM; in series [2], 95.5 mM; in series [3], 69.6 mM; in series [4], 52.6 mM; in series [5] it was 12.9 mM; in series [6], 12.3 mM. Moreover, the Michaelis constant (Km) in series [7] worked out at 3.0 mM. Further, the kcat was found to be 0.15 s⁻¹ in series [1]; 1.13 s⁻¹ in series [2]; 3.48 s⁻¹ in series [3]; 1.28 s⁻¹ in series [4]; 4.07 s⁻¹ in series [5]; 0.73 s⁻¹ in series [6]. The kcat in series [7] stood at 0.56 s⁻¹. Moreover, the kcat/Km in series [1] was determined as 750 M ^-1 s^-1; in series [2], 11.8 M ^-1 s^-1; in series [3] it was 50.0 M ^-1 s^-1; in series [4] it was 24.3 M ^-1 s^-1; in series [5] it was 316 M ^-1 s^-1; in series [6], 59.3 M ^-1 s^-1. Also, in series [7], the kcat/Km is given as 187 M ^-1 s^-1.
